Here are results for five molecules from patent publication US20230212319A1, “NOVEL ANTIGEN BINDING DOMAINS AND SYNTHETIC ANTIGEN RECEPTORS INCORPORATING THE SAME” (University of Southern California, priority 2020, published 2023).

The test system of one test is RAJI cells. Description: JNG (Jurkat NFAT-GFP) cells expressing SAR: GFP induction on co-culture with RAJI. The note with it: CD19 hu-mROO5-1 SIRs with deletion mutants of TCR constant chains; flow cytometry.
The test system of test [1] is target antigen-expressing cell line. Briefly: Jurkat NFAT-GFP (JNG) assay: induction of NFAT promoter driven GFP expression. In kind it is cell-based. The note with it: SAR-expressing JNG cells co-cultured with cell lines expressing their target antigen(s). The protocol:
Induction ofNFAT promoter driven GFP expression. […] Cellular supernatant is collected and assayed for the induction of cytokines (e.g., IL2).
Cellular supernatant is collected and assayed for the induction of cytokines (e.g., IL2).
JNG (Jurkat cells expressing EGFP under an NFAT promoter) were infected with lentiviral vectors encoding different single chain and multi-chain SARs by spinfection in the presence of 8 µg/ml of Polybrene® (Sigma, Catalog no. H9268). The Jurkat-NFAT-GFP cells are engineered in such a way that the IL-2 promoter, which carries NFAT binding sites, is cloned upstream of the GFP gene. These cells have been used to study signaling via TCR and CAR. The different SARs were stably expressed in Jurkat NFAT-GFP cells by lentiviral mediated gene transfer, followed by selection with puromycin or blasticidin. No drug selection was used in case the construct lacked an antibiotic resistance gene. The SAR-expressing Jurkat-NFAT-GFP cells were cocultured with the target cells at E:T ratio of approximately 1:2 for approximately 4 hours to 18 hours. When the interaction between SIRs and their target antigen results in activation of the NFAT pathway, GFP expression is induced. […] GFP expression was monitored by FACS analysis. The Jurkat-NFAT-GFP (parental) cells were used as control. The structure of different constructs can be determined based on their names. […] The sequence of the other constructs in the table can be similarly determined from their names and by referring to the different Tables of this disclosure that provide the names and SEQ ID NO of the different modules. Alternatively, the composition and modular architecture of the different SAR constructs can be determined from their sequences by bioinformatics tools, including using nucleic acid and amino acids homology searches. A SAR is considered positive in the assay in case the SAR expressing Jurkat-NFAT-GFP cells show greater % GFP positive cells when cultured with the target cell line as compared to parental Jurkat-NFAT-GFP cells. […] In general, the number +/-, +, 2+, 3+, 4+, 5+ refer to approximately 5%, 10%, 20%, 30%, 40% and 50% GFP positive cells. The % of GFP induction in the above assay is dependent not only the relative strength of the SAR but also, among other factors, on the relative level of expression of the SAR in the JNG cells and the relative level of expression of the target antigen in the target cell line. To control for the difference in gene transduction efficiency of the different SAR constructs, the experiment was conducted with JNG cells transduced with SAR constructs co-expressing a drug resistance gene (e.g., puromycin or PAC) followed by drug selection to generate a stable population of SAR-expressing cells. It is to be noted that the drug resistance gene (e.g., PAC) in the SAR constructs is optional and in vivo studies were conducted with SAR constructs lacking the PAC gene.

Another test deals with LNCaP-LucPPe cells. Briefly: LNCaP-LucPPE xenograft in NSG mice, with rechallenge. It counts as in vivo. The following applies: 1 × 10^6 LNCaP-LucPPe s.c., 17 days later 3 × 10^6 T cells i.v., male NSG mice.

B1: 22651 (protein)
chain: MALPVTALLLPLALLLHAARPDIQMTQSPSSLSASVGDRVTITCKASDHINNWLAWYQQKPGQAPKLLIYGATTLETGVPSRFSGSGSGTDYTLTISSLQPEDFATYYCQQSWNTPWTFGQGTKLEIKRLEADVSPKPTIFLPSIAETKLQKAGTYLCLLEKFFPDVIKIHWQEKKSNTILGSQEGNTMKTNDTYMKFSWLTVPEKSLDKEHRCIVRHENNKNGVDQEIIFPPIKTDVITMDPKDNCSKDANDTLLLQLTNTSAYYMYLLLLLKSVVYFAIITCCLLRRTAFCCNGEKSRAKRSGSGATNFSLLKQAGDVEENPGPTSMDWIWRILFLVGAATGAHSFEQVQLQQPGAELVKPGASVKMSCKASGYAFSSYWINWMKQKPGQGLEWIGQIYPGDGDTNYNGKFKGRATLTADTSSSTAYMQLSSLTSEDSAVYFCARSITTVVGCAMDYWGQGTSVTVSSTRPHTKPSVFVMKNGTNVACLVKEFYPKDIRINLVSSKKITEFDPAIVISPSGKYNAVKLGKYEDSNSVTCSVQHDNKTVHSTDFEVKTDSTDHVKPKETENTKQPSKSCHKPKAIVHTEKVNMMSLTVLGLRMLFAKTVAVNFLLTAKLFFLRAKRSGSGVKQTLNFDLLKLAGDVESNPGPSRGHMTEYKPTVRLATRDDVPRAVRTLAAAFADYPATRHTVDPDRHIERVTELQELFLTRVGLDIGKVWVADDGAAVAVWTTPESVEAGAVFAEIGPRMAELSGSRLAAQQQMEGLLAPHRPKEPAWFLATVGVSPDHQGKGLGSAVVLPGVEAAERAGVPAFLETSAPRNLPFYERLGFTVTADVEVPEGPRTWCMTRKPGA
As to B1, the “Jurkat-NFAT ASSA Y: Raji” value in the test on RAJI cells is given as “significant residual activity”.

B2: 22641 (protein)
chain: MALPVTALLLPLALLLHAARPDIQMTQSPSSLSASVGDRVTITCKASDHINNWLAWYQQKPGQAPKLLIYGATTLETGVPSRFSGSGSGTDYTLTISSLQPEDFATYYCQQSWNTPWTFGQGTKLEIKRLEAEISHTQKATLVCLATGFYPDHVELSWWVNGKEVHSGVCTDPQPLKEQPALNDSRYCLSSRLRVSATFWQNPRNHFRCQVQFYGLSENDEWTQDRAKPVTQIVSAEAWGRADCGFTSESYQQGVLSATILYEILLGKATLYAVLVSALVLMAMVKRKDSRGRAKRSGSGATNFSLLKQAGDVEENPGPTSMDWIWRILFLVGAATGAHSFEQVQLQQPGAELVKPGASVKMSCKASGYAFSSYWINWMKQKPGQGLEWIGQIYPGDGDTNYNGKFKGRATLTADTSSSTAYMQLSSLTSEDSAVYFCARSITTVVGCAMDYWGQGTSVTVSSTRDKSVCLFTDFDSQTNVSQSKDSDVYITDKCVLDMRSMDFKSNSAVAWSNKSDFACANAFNNSIIPEDTFFPSPESSCDVKLVEKSFETDTNLNFQNLSVIGFRILLLKVAGFNLLMTLRLWSSRAKRSGSGVKQTLNFDLLKLAGDVESNPGPSRGHMTEYKPTVRLATRDDVPRAVRTLAAAFADYPATRHTVDPDRHIERVTELQELFLTRVGLDIGKVWVADDGAAVAVWTTPESVEAGAVFAEIGPRMAELSGSRLAAQQQMEGLLAPHRPKEPAWFLATVGVSPDHQGKGLGSAVVLPGVEAAERAGVPAFLETSAPRNLPFYERLGFTVTADVEVPEGPRTWCMTRKPGA
On to B2, for which the “Jurkat-NFAT ASSA Y: Raji” value with RAJI cells was “significant GFP induction”.

B3: 22652 (protein)
chain: MALPVTALLLPLALLLHAARPDIQMTQSPSSLSASVGDRVTITCKASDHINNWLAWYQQKPGQAPKLLIYGATTLETGVPSRFSGSGSGTDYTLTISSLQPEDFATYYCQQSWNTPWTFGQGTKLEIKRLEVSPKPTIFLPSIAETKLQKAGTYLCLLEKFFPDVIKIHWQEKKSNTILGSQEGNTMKTNDTYMKFSWLTVPEKSLDKEHRCIVRHENNKNGVDQEIIFPPIKTDVITMDPKDNCSKDANDTLLLQLTNTSAYYMYLLLLLKSVVYFAIITCCLLRRTAFCCNGEKSRAKRSGSGATNFSLLKQAGDVEENPGPTSMDWIWRILFLVGAATGAHSFEQVQLQQPGAELVKPGASVKMSCKASGYAFSSYWINWMKQKPGQGLEWIGQIYPGDGDTNYNGKFKGRATLTADTSSSTAYMQLSSLTSEDSAVYFCARSITTVVGCAMDYWGQGTSVTVSSTRPHTKPSVFVMKNGTNVACLVKEFYPKDIRINLVSSKKITEFDPAIVISPSGKYNAVKLGKYEDSNSVTCSVQHDNKTVHSTDFEVKTDSTDHVKPKETENTKQPSKSCHKPKAIVHTEKVNMMSLTVLGLRMLFAKTVAVNFLLTAKLFFLRAKRSGSGVKQTLNFDLLKLAGDVESNPGPSRGHMTEYKPTVRLATRDDVPRAVRTLAAAFADYPATRHTVDPDRHIERVTELQELFLTRVGLDIGKVWVADDGAAVAVWTTPESVEAGAVFAEIGPRMAELSGSRLAAQQQMEGLLAPHRPKEPAWFLATVGVSPDHQGKGLGSAVVLPGVEAAERAGVPAFLETSAPRNLPFYERLGFTVTADVEVPEGPRTWCMTRKPGA
B3: the “Jurkat-NFAT ASSA Y: Raji” value in the test with RAJI cells is reported as “significant residual activity”.

B4: SEQ ID NO: 22009: two AABD attached in tandem to one of the two TCR constant chains (protein)
chain: MALPVTALLLPLALLLHAARPLEGKPIPNPLLGLDSTGSGEDLKNVFPPEVAVFEPSKAEIAHTQKATLVCLATGFYPDHVELSWWVNGKEVHSGVCTDPQPLKEQPALNDSRYCLSSRLRVSATFWQNPRNHFRCQVQFYGLSENDEWTQDRAKPVTQIVSAEAWGRADCGITSASYHQGVLSATILYEILLGKATLYAVLVSALVLMAMVKRKDSRGRAKRSGSGATNFSLLKQAGDVEENPGPTSTMDWIWRILFLVGAATGAHSQLQLQESGPGLVKPSETLSLTCTVSGGSVSSSSYYWGWIRQPPGKRLELIGSIYYGGSTYFNPSLKSRVTISVDTSKNQFSLKLSSVTAADTAVYYCAGGDTYGPVGQWPSDYRGQGTLVTVSSGGGGSGGGSFEVQLLESGGGLVQPGGSLRLSCAASGFIFSIYAMSWVRQAPGKGLEWVSGISGSGVNTYYADSVKGRFIISRDNSRNTVYLQMNSLRADDTAVYHCANGKGWDGNTWYEDYRGQGTLVTVSSTREQKLISEEDGSGIQNPDPAVYQLRDSKSSDKSVCLFTDFDSQTNVSQSKDSDVYITDKCVLDMRSMDFKSNSAVAWSNKSDFACANAFNNSIIPEDTFFPSSDVPCDVKLVEKSFETDTNLNFQNLSVIGFRILLLKVAGFNLLMTLRLWSSRAKRSGSGVKQTLNFDLLKLAGDVESNPGPSRGHMTEYKPTVRLATRDDVPRAVRTLAAAFADYPATRHTVDPDRHIERVTELQELFLTRVGLDIGKVWVADDGAAVAVWTTPESVEAGAVFAEIGPRMAELSGSRLAAQQQMEGLLAPHRPKEPAWFLATVGVSPDHQGKGLGSAVVLPGVEAAERAGVPAFLETSAPRNLPFYERLGFTVTADVEVPEGPRTWCMTRKPGA
For B4, the “GFP induction / activity in JNG assay” value in test [1] is “only weak and inconsistent activity”.

B5: 9970 (protein)
chain: MALPVTALLLPLALLLHAARPDIVMTQSHKFMSTSVGDRVSIICKASQDVGTAVDWYQQKPGQSPKLLIYWASTRHTGVPDRFTGSGSGTDFTLAITNVQSEDLADYFCQQYNSYPLTFGAGTKLEIKRLEDLKNVFPPEVAVFEPSEAEISHTQKATLVCLATGFYPDHVELSWWVNGKEVHSGVCTDPQPLKEQPALNDSRYCLSSRLRVSATFWQNPRNHFRCQVQFYGLSENDEWTQDRAKPVTQIVSAEAWGRADCGFTSESYQQGVLSATILYEILLGKATLYAVLVSALVLMAMVKRKDSRGRAKRSGSGATNFSLLKQAGDVEENPGPTSMDWIWRILFLVGAATGAHSFEEVQLVESGGGLVQPGGSLRLSCAASGYTFTEYTIHWVRQAPGKGLEWVANINPNNGGTTYNQKFEDRFTISRDNSKNTLYLQMNSLRAEDTAVYYCARGWNFDYWGQGTLVTVSSTRIQNPDPAVYQLRDSKSSDKSVCLFTDFDSQTNVSQSKDSDVYITDKCVLDMRSMDFKSNSAVAWSNKSDFACANAFNNSIIPEDTFFPSPESSCDVKLVEKSFETDTNLNFQNLSVIGFRILLLKVAGFNLLMTLRLWSS
modifications: Synthetic Polynucloetide
For the molecule B5, the “tumor control (bioluminescence imaging, caliper tumor volume), LNCaP-LucPPE xenograft” value in the test on LNCaP-LucPPe cells was “statistically significant and effective tumor control”.
